One test deals with Gαi1. The test is described as follows: cell-based or functional assay.
The target of the next test is Gαq/i chimera. The test is described as follows: cell-based or functional assay.

B1: human RGS2 (protein, UniProt P41220 1-211, looked up)
chain: MQSAMFLAVQHDCRPMDKSAGSGHKSEEKREKMKRTLLKDWKTRLSYFLQNSSTPGKPKTGKKSKQQAFIKPSPEEAQLWSEAFDELLASKYGLAAFRAFLKSEFCEENIEFWLACEDFKKTKSPQKLSSKARKIYTDFIEKEAPKEINIDFQTKTLIAQNIQEATSGCFTTAQKRVYSLMENNSYPRFLESEFYQDLCKKPQITTEPHAT
As to B1, in the test with Gαi1, the attenuation of SRE activation (SRE-luciferase reporter, CHO-D2R cells co-transfected with Gαi1) was in the range of 25 to 30%. The same molecule registered a reduction in SRE activation (SRE-luciferase reporter, CHO-D2R cells) in the test with Gαq/i chimera of 70%.

(Values after patent publication US20030119716A1, “Methods for screening, treating and diagnosing G-protein coupled receptor-related disorders and compositions thereof” (Wyeth, priority 2001, published 2003).)
